{
  "source": "paper PMC7681980",
  "key": {"[1]": {"target": "type I collagen extracted from male Wistar Hannover rat tail tendons (dialyzed) (rat (Wistar Hannover, extracted from tail tendons)) (UniProt P02454)", "experiment": "ITC; NaOH (4.6 uM in ultrapure water) titrated in 24 aliquots into 950 uL type I collagen (0.2 mg/mL in 0.33% v/v acetic acid), 30.0 ± 0.1 °C, stirred at 300 rpm; self-assembly (fibrillogenesis) triggered by the rise in pH; areas corrected by the acid-base control titration; enthalpy of self-assembly at the isoelectric point; at least triplicate"}, "[2]": {"target": "type I collagen extracted from male Wistar Hannover rat tail tendons (dialyzed) (rat (Wistar Hannover, extracted from tail tendons)) (UniProt P02454)", "experiment": "ITC; NaOH (4.6 uM in ultrapure water) titrated in 24 aliquots into 950 uL type I collagen (0.2 mg/mL in 0.33% v/v acetic acid), 30.0 ± 0.1 °C, stirred at 300 rpm; self-assembly (fibrillogenesis) triggered by the rise in pH; areas corrected by the acid-base control titration; enthalpy of self-assembly at the isoelectric point; at least triplicate", "remark": "listed apart in the source"}},
  "note": "Read-outs that look alike come from different tables or passages of the source.",
  "data": [
    {"substance": "type I collagen extracted from male Wistar Hannover rat tail tendons (dialyzed), P02454 152-1207; P02466 86-1125 (complex; other documents disagree on this pair)", "values": [
      {"measurement": "dH", "setting": "[1]", "value": 0.000784, "unit": "kcal/mol"},
      {"measurement": "dH", "setting": "[2]", "value": 0.000782, "unit": "kcal/mol"}
    ]}
  ]
}
